This is an account of results in PMC12051055, “Spectroscopy and crystallography define carotenoid oxygenases as a new subclass of mononuclear non-heme Fe^II enzymes” (The Journal of Biological Chemistry, 2025).

Substrate in this series: CC=Cc1ccc(O)c(OC)c1
As to the kind of experiment: steady-state kinetics of cleavage to vanillin by purified enzyme (apparent Km). Format: biochemical, Neurospora crassa. Particulars: Fe(II). The text has this:
steady-state kinetics of cleavage to vanillin by purified enzyme (apparent Km) on CAO1 (Neurospora crassa carotenoid oxygenase 1) | wildtype and T151V steady-state kinetics toward isoeugenol

A word on the Km: it is the substrate concentration at which the rate is half of its maximum.

B1: CAO1 (Neurospora crassa carotenoid oxygenase 1) (Neurospora crassa OR74A) (protein)
chain: MAEYVFSDAPKDSHGNGVKDAVPGKQPEELPPAPRYFQGENTAGFMRPVRFEGDITNLEVVGEIPKSIEGTFYRVMPEPHLPSFIPNDPWFNGDGNISGFYFKDGHVDLKQRYVRTEKFVREAEARRSLLGKYRNRYTDLVEFKIRSTANTNIVYWRGQLLALKEDSPPYAMDPETLETFGVYDFDGQLPSLTFTAHPKFDPVTREMVCFGYEAKGDGTRDICYYSFGPDGKIAETVWLVSPVCGMIHDFAVTENFVIFPIIPLVCDVERMKQGGDHWQWDYSIPMYIGVLPRRGAQGSDVKWFEAPHGFAGHVANAFEDDKGHIQLQMAYAKDNVFFWWPDANGKGPRPGEVEAHFANFVLDYQSDKLPLAEPTYLVDDDMEFPRIDDRVATRKHKHTFFCIFDRKPGVTDFEFVMPRAGGGAPMSNGLAHLNHETGDIQRYLPGPRKLTGECIFIPRNSEAAEGDGYVMVLLANYEDMCSELAVLDTKDLTNEVALIKLPVRLRPGLHGNWVDKSDVDGHPAPL
On to B1, for which the Km was 86.26 ± 13.49 µM.
